According to paper PMC4113718:

Target: CXC chemokine receptor (CXCR) 4 on THP-1 cells (human (endogenous in THP-1)) (UniProt P61073)
Sequence (P61073 whole entry): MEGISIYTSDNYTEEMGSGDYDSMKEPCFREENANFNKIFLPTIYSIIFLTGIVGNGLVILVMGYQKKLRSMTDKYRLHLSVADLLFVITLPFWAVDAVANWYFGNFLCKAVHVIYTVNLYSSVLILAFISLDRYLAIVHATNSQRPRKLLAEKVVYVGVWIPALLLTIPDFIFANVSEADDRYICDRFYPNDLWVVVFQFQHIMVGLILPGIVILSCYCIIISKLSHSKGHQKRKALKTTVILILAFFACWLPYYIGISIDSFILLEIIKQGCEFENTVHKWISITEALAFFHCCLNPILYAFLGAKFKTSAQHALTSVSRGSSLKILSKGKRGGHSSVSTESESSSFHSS

| Substance | LogIC50 (pM), reduction of cAMP levels in forskolin-stimulated THP-1 cells | bottom plateau (%), reduction of cAMP levels in forskolin-stimulated THP-1 cells [%] |
| --- | --- | --- |
| Ub(1–74)NN (from UniProt P0CG47 1-76) (ligand) | 2.3 log(pM) | 54.1 |
| Ub(1–74)RR (from UniProt P0CG47 1-76) (ligand) |  | 42.8 |
| Ub(1–74)VV (from UniProt P0CG47 1-76) (ligand) |  | 46.7 |
